T1: cynomolgus monkey His6-GITR (cynomolgus monkey)
T1 construct: His6-tagged recombinant protein; also called cGITR-His; cyno GITR-His
T1 chain: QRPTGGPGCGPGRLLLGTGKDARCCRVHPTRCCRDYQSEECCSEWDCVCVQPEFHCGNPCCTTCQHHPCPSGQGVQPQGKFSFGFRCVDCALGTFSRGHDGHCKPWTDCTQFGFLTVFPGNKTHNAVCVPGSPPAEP

T2: mouse His6-GITR (mouse, UniProt O35714 20-153)
T2 construct: His6-tagged recombinant protein; also called mGITR-His; mouse GITR-His
T2 sequence: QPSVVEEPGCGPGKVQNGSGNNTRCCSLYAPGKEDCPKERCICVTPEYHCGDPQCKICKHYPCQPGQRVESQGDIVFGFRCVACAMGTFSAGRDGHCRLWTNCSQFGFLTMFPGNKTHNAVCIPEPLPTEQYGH

T3: human His6-GITR (human, UniProt Q9Y5U5 26-162)
T3 construct: His6-tagged recombinant protein; also called hGITR-His; human GITR-His
T3 sequence: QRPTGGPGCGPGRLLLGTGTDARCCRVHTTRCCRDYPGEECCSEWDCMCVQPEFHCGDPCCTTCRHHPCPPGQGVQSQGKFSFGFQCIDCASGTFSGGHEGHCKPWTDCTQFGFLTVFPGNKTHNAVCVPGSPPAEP


Assays:
[1] = biological target: T1, cynomolgus monkey His6-GITR; experiment: ELISA, scFv periplasmic extract on coated His6-GITR
Procedure: (§1) The SuperHuman-2.0 scFv Antibody Library (available from Distributed Bio, South San Francisco, Calif.) was used to perform selection with human, cynomolgus or mouse GITR proteins. Selected phage clones from overnight growth were inoculated into wells in 96 well deep well plates containing 1 mL of medium. scFv expression was induced by addition of IPTG (Teknova) to a final concentration of 1 mM. Plates were grown overnight after induction. To prepare periplasmic extracts (PPE), the plates containing the phage clones were centrifuged at 2500 rpm for 10 min, the supernatant discarded and then pellets treated with 75 μL of cold periplasmic extract buffer with appropriate concentration of protease inhibitors (Complete Mini, EDTA-free -Roche Applied Biosciences—Cat No 1836170). After shaking at room temperature for 10 min, 225 μL of cold ddH2O with added protease inhibitor (1 tablet/50 mL) was added per well and mixed by pipetting up and down. PPE extraction was completed by incubation at room temperature for an additional 1 hr. The plates were then centrifuged at 4000 rpm for 20 minutes and 200 μL of PPE supernatant was collected from each well and transferred to a new plate which was then blocked with equal volume of 4% milk (2% final) to prepare blocked PPE extracts. In the meantime, Maxisorp plates (Nunc 442404) coated with relevant antigen (human, mouse or cynomolgus monkey His6-GITR) at 50 μl/well of 1 μg/mL antigen or 2% BSA in PBS as control were prepared for ELISA analyses. Next, 50 μL of each blocked PPE extract was transferred to the pre-blocked ELISA plates coated with the relevant antigens. After incubation and washing 3× with PBS, 50 μL of anti-V5 tag antibody (tag included in the phage display constructs, Invitrogen Cat No R960-25) at 1:5000 dilution in 2% milk was added and the plates were incubated for 1 hr. […] After further washing 3× with PBST, 50 μl/well of TMB substrate was added and the plates were developed until positive controls were visible. The reaction was stopped with 50 μl/well of 2N H2SO4. Plates were read at 450 nm to determine ELISA signal from bound PPE derived scFv.

[2] = biological target: T2, mouse His6-GITR; experiment: as above
Procedure: as §1

[3] = biological target: T3, human His6-GITR; experiment: as above
Procedure: as §1

[4] = biological target: T3, human His6-GITR; experiment: CARTERRA LSA, scFv periplasmic extract

| Binder | cGITR-His/BKG [1] [fold over background] | mGITR-His/BKG [2] [fold over background] | hGITR-His/BKG [3] [fold over background] | Kd [4] [nM] |
| --- | --- | --- | --- | --- |
| GITR-Mab-8 scFv (scFv, V domains shown, scFv in periplasmic extract, V5 tag) VH: QVQLVQSGAEVKKPGASVKVSCKASGGTFSSYVISWVRQAPGQGLEWMGWMNPGSGNTGYAQKFQGRVTMTRDTSTSTVYMELSSLRSEDTAVYYCITDSEDDYWGQGTLVTVSS VL: not shown | 16.1 | 1.4 | 9.6 | 49.6 |
| GITR-Mab-11 scFv (scFv, V domains shown, scFv in periplasmic extract, V5 tag) VH: QVQLVQSGAEVKKPGASVKVSCKASGGTFSNYGISWVRQAPGQGLEWMGIINPTDGSTTYAQKFQGRVTMTRDTSTSTVYMELSSLRSEDTAVYYCARWWGSGWSWYFDLWGRGTLVTVSS VL: not shown | 15.6 | 1.1 | 21.8 | 1.4 |
| GITR-Mab-6 scFv (scFv, V domains shown, scFv in periplasmic extract, V5 tag) VH: QVQLVQSGAEVKKPGASVKVSCKASGYAFTAYYLHWVRQAPGQGLEWMGWMNPNSGNTGYAQKFQGRVTMTRDTSTSTVYMELSSLRSEDTAVYYCAREGWGYYDGGFDPWGQGTLVTVSS VL: not shown | 7.5 | 1 | 35.8 | 0.1 |
| GITR-Mab-9 scFv (scFv, V domains shown, scFv in periplasmic extract, V5 tag) VH: QVQLVQSGAEVKKPGASVKVSCKASGHTFTSQYMHWVRQAPGQGLEWVGVINPNDGSTSYAQKFQGRVTMTRDTSTSTVYMELSSLRSEDTAVYYCARDGAYYYDSSGYYRSSNFDYWGQGTLVTVSS VL: DIQMTQSPSSLSASVGDRVTITCQASQDIGNYLNWYQQKPGKAPKLLIYGASNLETGVPSRFSGSGSGTDFTLTISSLQPEDFATYYCQQGYSFPLTFGQGTKVEIK | 11.6 | 1.1 | 12.8 | 3.3 |
| GITR-Mab-14 scFv (scFv, V domains shown, scFv in periplasmic extract, V5 tag) VH: EVQLLESGGGLVKPGGSLRLSCAASGFRFSVYWMSWVRQAPGKGLEWVSGISGSGGTTYYADSVKGRFTISRDDSKNTLYLQMNSLKTEDTAVYYCARVRRDGYNYNFDYWGQGTLVTVSS VL: DIQMTQSPSSLSASVGDRVTITCQASQDISNYLNWYQQKPGKAPKLLIFDASSLEAGVPSRFSGSGSGTDFTLTISSLQPEDFATYYCQQANSFPPTFGQGTEVEIK | 11.5 | 0.9 | 34 | 30.3 |
| GITR-Mab-5 scFv (scFv, V domains shown, scFv in periplasmic extract, V5 tag) VH: EVQLLESGGGLVQPGGSLRLSCAASGFTFDAYAMHWVRQAPGKGLEWVSAIGTGGDTYYADSVKGRFTISRDNSKNTLYLQMNSLRAEDTAVYYCARDLYGSGSPQYYYYYGMDVWGQGTTVTVSS VL: DIQMTQSPSSLSASVGDRVTITCRASQGIKNDLGWYQQKPGKAPKLLIYAASSLQSGVPSRFSGSGSGTDFTLTISSLQPEDFATYYCQQSYSVPFTFGQGTKVEIK | 8 | 1.2 | 16.3 | 8.3 |
| GITR-Mab-12 scFv (scFv, V domains shown, scFv in periplasmic extract, V5 tag) VH: QVQLVQSGAEVKKPGASVKVSCKASGYTFTSYAINWVRQAPGQGLEWMGILSPSGGGTSYAPKFQGRVTMTRDTSTSTVYMELSSLRSEDTAVYYCARGPWYFDLWGRGTLVTVSS VL: DIQMTQSPSSLSASVGDRVTITCRASQGISNSLAWYQQKPGKAPKLLIYAASSLQSGVPSRFSGSGSGTDFTLTISSLQPEDFATYYCQQSYSTPFTFGPGTKVDIK | 16.9 | 1 | 37.8 | 7.5 |
| GITR-Mab-7 scFv (scFv, V domains shown, scFv in periplasmic extract, V5 tag) VH: QVQLVQSGAEVKKPGASVKVSCKASGGTSSTYAVTWVRQAPGQGLEWMGVINPNDGSTTYAQNFQGRVTMTRDTSTSTVYMELSSLRSEDTAVYYCARWTPLFGVVIPDYYYYGMDVWGQGTLVTVSS VL: DIQMTQSPSSLSASVGDRVTITCQASQDISNYLNWYQQKPGKAPKLLIYAASSLQSGVPSRFSGSGSGTDFTLTISSLQPEDFATYYCQQSYSTPPTFGQGTRLEIK | 9 | 1 | 16.4 | 11.5 |
| GITR-Mab-26 scFv (scFv, V domains shown, scFv in periplasmic extract, V5 tag) VH: QVQLVQSGAEVKKPGASVKVSCKASGYTFTSYGISWVRQAPGQGLEWMGWMNPNNGNTVYAQKFQGRVTMTRDTSTSTVYMELSSLRSEDTAVYYCAKDSDWYGAFDIWGQGTMVTVSS VL: DIQMTQSPSSLSASVGDRVTITCQASQSISRWLAWYQQKPGKAPKLLIYSASSLQSGVPSRFSGSGSGTDFTLTISSLQPEDFATYYCQQSYSTPWTFGQGTKLEIK | 0.8 | 1.1 | 12.7 | – |
| GITR-Mab-25 scFv (scFv, V domains shown, scFv in periplasmic extract, V5 tag) VH: QVQLVQSGAEVKKPGASVKVSCKASGGTFSSYAISWVRQAPGQGLEWMGWVSGYNGNANYAQKFQGRVTMTRDTSTSTVYMELSSLRSEDTAVYYCARDRVESGYSYHDAFDIWGQGTMVTVSS VL: DIQMTQSPSSLSASVGDRVTITCRTSQSIRRYLNWYQQKPGKAPKLLIYAASSLQSGVPSRFSGSGSGTDFTLTISSLQPEDFATYYCQQSYSIPWTFGPGTKVDIK | 1.1 | 1.1 | 22.2 | – |
| GITR-Mab-2 scFv (scFv, V domains shown, scFv in periplasmic extract, V5 tag) VH: QVQLVQSGAEVKKPGSSVKVSCKASGYRFTGYHLHWVRQAPGQGLEWMGGIIPIFGTANYAQKFQGRVTITADKSTSTAYMELSSLRSEDTAVYYCAYGVPPDPWGQGTLVTVSS VL: not shown | 25.2 | 1.1 | 20.1 | 16.3 |
| GITR-Mab-17 scFv (scFv, V domains shown, scFv in periplasmic extract, V5 tag) VH: QVQLVQSGAEVKKPGASVKVSCKASGYTFTSYGISWVRQAPGQGLEWMGWMNPNSGNTGYAQKFQGRVTMTRDTSTSTVYMELSSLRSEDTAVYYCARLGLWFGEYQYYFDYWGQGTLVTVSS VL: not shown | – | 1.1 | 18.9 | 24.5 |
| GITR-Mab-13 scFv (scFv, V domains shown, scFv in periplasmic extract, V5 tag) VH: QVQLVQSGAEVKKPGSSVKVSCKASGGTFSSYAISWVRQAPGQGLEWMGGIVPMLGSPHYAQKFQGRVTITADESTSTAYMELSSLRSEDTAVYYCARGSWLVADFQHWGQGTLVTVSS VL: not shown | 9.4 | 1.1 | 25.4 | 2.6 |
| GITR-Mab-15 scFv (scFv, V domains shown, scFv in periplasmic extract, V5 tag) VH: QVQLVQSGAEVKKPGSSVKVSCKASGFTFTTSAVQWVRQAPGQGLEWMGGIIPIFGTANYAQKFQGRVTITADESTSTAYMELSSLRSEDTAVYYCAKGSGYEFPGGSEYFQHWGQGTLVTVSS VL: not shown | 12.3 | 1.2 | 11.4 | 52.1 |
| GITR-Mab-3 scFv (scFv, V domains shown, scFv in periplasmic extract, V5 tag) VH: QVQLVQSGAEVKKPGASVKVSCKASGYTFTSYDINWVRQAPGQGLEWMGWISGYNGNTNYAQKFQGRVTMTRDTSTSTVYMELSSLRSEDTAVYYCARSHEYYYYYGMDVWGQGTLVTVSS VL: EIVMTQSPATLSVSPGERATLSCRASQSVSSSYLAWYQQKPGQAPRLLIYGASTRATGIPARFSGSGSGTEFTLTISSLQSEDFAVYYCQQYYTTPFTFGPGTKVDIK | 11.1 | 1 | 12.1 | 10.5 |
| GITR-Mab-10 scFv (scFv, V domains shown, scFv in periplasmic extract, V5 tag) VH: QVQLVQSGAEVKKPGASVKVSCKASGYTFTSNYMHWVRQAPGQGLEWMGWMNPNSGNTAYAQKFQGRVTMTRDTSTSTVYMELSSLRSEDTAVYYCARGRGGQLLFDYWGQGTLVTVSS VL: DIQMTQSPSSLSASVGDRVTITCRASQGISSWLAWYQQKPGKAPKLLIYAASTLQSGVPSRFSGSGSGTDFTLTISSLQPEDFATYYCQQYNSYSTFGQGTKVEIK | 29.4 | 1.1 | 34.2 | 5.3 |
